Test results from the Human Domainome abundance scans (Beltran et al. 2025).

B1: Double-stranded RNA-binding protein Staufen homolog 1, residues 183 to 249; numbered along this chain, O95793 (parent)
chain: KSEISQVFEIALKRNLPVNFEVARESGPPHMKNFVTKVSVGEFVGEGEGKSKKISKKNAAIAVLEEL

Variants of: B1
Experiment: abundance fitness (aPCA) (normalised: wild type 0, dead -1); higher = more abundant; growth selection in yeast, the domain comes from the species named
Conditions: Homo sapiens

Abundance fitness, by site and new letter:
S39: K -0.05, H -0.081, F -0.099, M -0.056, Y -0.051, P -0.703, W -0.119, D -0.542, V -0.038, C -0.064, N -0.138, E -0.146, L -0.267
N33: G -0.221, P -0.386, V -0.115, D -0.376, F -0.29, A -0.219, H 0.016, T 0.052, Q -0.047, M -0.128, W -0.054, C -0.163, S -0.016, Y -0.255, L -0.072, R 0.008, I -0.117, E -0.269, K -0.011
V38: M -0.231, Y -0.774, A -0.196, R -0.654, S -0.46, G -0.557, N -0.445, D -0.57, L -0.081, T -0.481, P -0.67, I -0.168, W -0.988, Q -0.704, F -0.352, K -0.511, E -0.554
G47: Y -0.945, E -0.773, M -0.874, T -0.868, C -0.976, Q -0.611, R -0.627, I -0.897, F -0.945, K -0.81, W -1.01, P -0.763, S -0.667, V -0.834, H -0.555
K50: P 0.078, N 0.009, D -0.17, Q -0.036, S -0.007, W -0.221, I -0.145, E -0.004, V -0.127, F -0.406, C -0.036, R -0.006, M -0.117, G -0.184, L -0.132, Y -0.187, A -0.035, T -0.048
F43: H 0.014, I -0.197, C -0.262, D -0.628, A -0.124, E -0.44, S -0.272, N -0.437, L -0.126, G -0.63, K -0.317, R -0.482, T -0.195, M -0.255, P -0.649
T36: I -1.1, P -0.671, M -0.749, L -1.04, R -0.768, A -0.251, N -0.674, Y -0.449, G -0.664, Q -0.548, F -1.38, V -0.684, W -1.12, S -0.204, K -0.689, C 0.046, D -0.6
G41: Y -1.13, S -0.945, N -0.853, I -1.41, T -1.17, C -0.911, L -0.91, P -0.645, E -0.611, R -0.941, F -1.18, M -0.888, Q -0.979, H -0.737, D -0.761, W -0.825
V35: I 0.046, K 0.048, G -0.497, S -0.111, L -0.021, E -0.393, A -0.256, H 0.029, R 0.04, Y -0.174, W -0.186, M -0.083, P -0.502, N -0.35, T -0.02, D -0.511, Q -0.093, F 0.033
V40: I -0.514, F -0.564, C -0.289, M -0.312, Y -0.809, K -0.851, S -0.703, L -0.199, R -0.811, D -0.577, A -0.501, N -0.617, Q -0.542, W -1.3, T -0.541, H -0.783, G -0.681, E -0.555, P -0.442
